Measured values: patent US20240299493A1 (ACCELERON PHARMA, published 2024)

How the values were obtained:
GDF11 [1] = target: T1, GDF11 (UniProt O95390 299-407); assay: cell-based or functional assay
T1 sequence (looked up): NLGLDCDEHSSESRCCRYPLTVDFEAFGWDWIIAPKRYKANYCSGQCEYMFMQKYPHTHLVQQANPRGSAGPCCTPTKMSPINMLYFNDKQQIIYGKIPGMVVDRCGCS

activin A [2] = target: T2, activin A (UniProt P08476 311-426); assay: cell-based or functional assay
T2 construct: also called ActA
T2 sequence (looked up): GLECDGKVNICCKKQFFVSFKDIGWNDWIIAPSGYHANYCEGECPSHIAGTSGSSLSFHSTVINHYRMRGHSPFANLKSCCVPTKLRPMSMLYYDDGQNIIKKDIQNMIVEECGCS

GDF11 [3] = target: T1, GDF11; assay: Biacore; Fc fusion captured by anti-hFc antibody, ligand flowed
Procedure: (§1) Binding of certain ActRIIB-Fc proteins and ActRIIB variant Fc fusion polypeptides to ligands was tested in a Biacore™ assay.
(§2) The ActRIIB-Fc variants or wild-type protein were captured onto the system using an anti-hFc antibody. Ligands were injected and flowed over the captured receptor proteins.

activin A [4] = target: T2, activin A; assay: as above
Procedure: as §1, §2

GDF8 = target: T3, GDF8 (UniProt O14793 267-375); assay: as above
T3 construct: also called myostatin
T3 sequence (looked up): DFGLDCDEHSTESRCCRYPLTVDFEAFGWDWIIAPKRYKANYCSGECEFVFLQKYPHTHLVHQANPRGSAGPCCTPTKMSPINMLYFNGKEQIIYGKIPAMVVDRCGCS
Procedure: as §1, §2

Row | Molecule | GDF11 Inhibition Activity (KI) (GDF11 [1]) | Activin Inhibition Activity (KI) (activin A [2]) | Kd (GDF11 [3]) | koff (GDF11 [3]) | Kd (activin A [4]) | koff (activin A [4]) | kon (activin A [4]) | Kd (GDF8) | koff (GDF8)
1 | ActRIIB-Fc A64 20-134 (Fc fusion) | 1000 nM | 1000 nM | – | – | – | – | – | – | –
2 | ActRIIB(A24N 20-134)-hFc (Fc fusion, A24N creates an N-linked glycosylation sequence (N-E-T), paragraph 96, also called A24N variant) GRGENETRECIYYNANWELERTNQSGLERCEGEQDKRLHCYASWRNSSGTIELVKKGCWLDDFNCYDRQECVATEENPQVYFCCCEGNFCNERFTHLPEAGGPEVTYEPPPTAPTGGGTHTCPPCPAPELLGGPSVFLFPPKPKDTLMISRTPEVTCVVVDVSHEDPEVKFNWYVDGVEVHNAKTKPREEQYNSTYRVVSVLTVLHQDWLNGKEYKCKVSNKALPVPIEKTISKAKGQPREPQVYTLPPSREEMTKNQVSLTCLVKGFYPSDIAVEWESNGQPENNYKTTPPVLDSDGSFFLYSKLTVDKSRWQQGNVFSCSVMHEALHNHYTQKSLSLSPGK | – | – | 0.0519 nM | 6.35e-05 s⁻¹ | 0.104 nM | 0.000346 s⁻¹ | 3.34e+06 M⁻¹ s⁻¹ | – | –
3 | ActRIIB(R64K 20-129)-hFc (Fc fusion) GRGEAETRECIYYNANWELERTNQSGLERCEGEQDKRLHCYASWKNSSGTIELVKKGCWLDDFNCYDRQECVATEENPQVYFCCCEGNFCNERFTHLPEAGGPEVTYEPPTGGGTHTCPPCPAPELLGGPSVFLFPPKPKDTLMISRTPEVTCVVVDVSHEDPEVKFNWYVDGVEVHNAKTKPREEQYNSTYRVVSVLTVLHQDWLNGKEYKCKVSNKALPVPIEKTISKAKGQPREPQVYTLPPSREEMTKNQVSLTCLVKGFYPSDIAVEWESNGQPENNYKTTPPVLDSDGSFFLYSKLTVDKSRWQQGNVFSCSVMHEALHNHYTQKSLSLSPGK | – | – | – | – | 0.0841 nM | 0.000628 s⁻¹ | 7.46e+06 M⁻¹ s⁻¹ | 2.15 nM | 0.000209 s⁻¹
